Consider seven molecules from US20250339531A1, “DUX4 POLYPEPTIDES AND NUCLEIC ACIDS FOR TREATING INFLAMMATORY AND AUTOIMMUNE CONDITIONS” (Fred Hutchinson Cancer Center, priority 2021, published 2025).

The test relates to proteins that co-immunoprecipitated with DUX4-CTD constructs expressed in MB135 myoblasts. As to the kind of experiment: LC-MS of proteins co-immunoprecipitated with DUX4-CTD (Table 1) and western validation. The conditions noted are these: for 4. longCTD + Dox + IFNG: LC-MS counts of the listed protein co-immunoprecipitated with DUX4-CTD bait longCTD, experiment 4, Dox + IFNG; for 3. + Dox longCTD: experiment 3, Dox only; for 3. + IFNg + Dox longCTD: experiment 3, IFNg + Dox; for SUM of PSMS: sum over all samples; for 4. mL1dL2 + Dox + IFNG: LC-MS value per protein co-immunoprecipitated with DUX4-CTD construct mL1dL2 in MB135 myoblasts. Format: binding, human. On the set-up: key to 4. mL1dL2 + Dox + IFNG / 4. + IFNG mix / 4. longCTD + Dox + IFNG / 3. + IFNg + Dox longCTD / 3. + Dox longCTD / 3. + IFNG longCTD: peptide-spectrum matches (PSMs) per protein. The gist of the method:
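FLAG-tagged DUX4-CTD expressed in doxycycline-induced MB135 myoblasts, some also IFNG-treated; nuclear lysates in pH 7.4 NP-40 IP buffer were pre-cleared, then anti-FLAG immunoprecipitated 3 h at 4 °C. For LC-MS, FLAG-peptide elution, in-gel trypsin digest, Orbitrap analysis; proteins with ≥2 PSMs in both experiments categorised and ranked by total PSMs.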

B1: P04843 (protein, UniProt P04843 1-607, looked up)
chain: MEAPAAGLFLLLLLGTWAPAPGSASSEAPPLINEDVKRTVDLSSHLAKVTAEVVLAHLGGGSTSRATSFLLALEPELEARLAHLGVQVKGEDEEENNLEVRETKIKGKSGRFFTVKLPVALDPGAKISVIVETVYTHVLHPYPTQITQSEKQFVVFEGNHYFYSPYPTKTQTMRVKLASRNVESYTKLGNPTRSEDLLDYGPFRDVPAYSQDTFKVHYENNSPFLTITSMTRVIEVSHWGNIAVEENVDLKHTGAVLKGPFSRYDYQRQPDSGISSIRSFKTILPAAAQDVYYRDEIGNVSTSHLLILDDSVEMEIRPRFPLFGGWKTHYIVGYNLPSYEYLYNLGDQYALKMRFVDHVFDEQVIDSLTVKIILPEGAKNIEIDSPYEISRAPDELHYTYLDTFGRPVIVAYKKNLVEQHIQDIVVHYTFNKVLMLQEPLLVVAAFYILFFTVIIYVRLDFSITKDPAAEARMKVACITEQVLTLVNKRIGLYRHFDETVNRYKQSRDISTLNSGKKSLETEHKALTSEIALLQSRLKTEGSDLCDRVSEMQKLDAQVKELVLKSAVEAERLVAGKLKKDTYIENEKLISGKRQELVTKIDHILDAL
modifications: full-length
For the molecule B1, the “4. longCTD + Dox + IFNG” value came out at 2 and the “SUM of PSMS” value was found to be 30. Moreover, for the setting “bait longCTD”, the “3. + Dox longCTD” value is 4 and the “3. + IFNg + Dox longCTD” value came to 14. Under “bait longCTD, experiment 3, IFNG only, no doxycycline (bait at background level)”, the “3. + IFNG longCTD” value was 1.

B2: P13674 (protein, UniProt P13674 1-534, looked up)
chain: MIWYILIIGILLPQSLAHPGFFTSIGQMTDLIHTEKDLVTSLKDYIKAEEDKLEQIKKWAEKLDRLTSTATKDPEGFVGHPVNAFKLMKRLNTEWSELENLVLKDMSDGFISNLTIQRQYFPNDEDQVGAAKALLRLQDTYNLDTDTISKGNLPGVKHKSFLTAEDCFELGKVAYTEADYYHTELWMEQALRQLDEGEISTIDKVSVLDYLSYAVYQQGDLDKALLLTKKLLELDPEHQRANGNLKYFEYIMAKEKDVNKSASDDQSDQKTTPKKKGVAVDYLPERQKYEMLCRGEGIKMTPRRQKKLFCRYHDGNRNPKFILAPAKQEDEWDKPRIIRFHDIISDAEIEIVKDLAKPRLRRATISNPITGDLETVHYRISKSAWLSGYENPVVSRINMRIQDLTGLDVSTAEELQVANYGVGGQYEPHFDFARKDEPDAFKELGTGNRIATWLFYMSDVSAGGATVFPEVGASVWPKKGTAVFWYNLFASGEGDYSTRHAACPVLVGNKWVSNKWLHERGQEFRRPCTLSELE
modifications: full-length
Turning to B2, the “4. longCTD + Dox + IFNG” value worked out at 9 and the “SUM of PSMS” value is recorded as 45. Besides, under “bait longCTD”, the “3. + Dox longCTD” value was found to be 3 and the “3. + IFNg + Dox longCTD” value stood at 5.

B3: Q12797 (protein, UniProt Q12797 1-758, looked up)
chain: MAQRKNAKSSGNSSSSGSGSGSTSAGSSSPGARRETKHGGHKNGRKGGLSGTSFFTWFMVIALLGVWTSVAVVWFDLVDYEEVLGKLGIYDADGDGDFDVDDAKVLLGLKERSTSEPAVPPEEAEPHTEPEEQVPVEAEPQNIEDEAKEQIQSLLHEMVHAEHVEGEDLQQEDGPTGEPQQEDDEFLMATDVDDRFETLEPEVSHEETEHSYHVEETVSQDCNQDMEEMMSEQENPDSSEPVVEDERLHHDTDDVTYQVYEEQAVYEPLENEGIEITEVTAPPEDNPVEDSQVIVEEVSIFPVEEQQEVPPETNRKTDDPEQKAKVKKKKPKLLNKFDKTIKAELDAAEKLRKRGKIEEAVNAFKELVRKYPQSPRARYGKAQCEDDLAEKRRSNEVLRGAIETYQEVASLPDVPADLLKLSLKRRSDRQQFLGHMRGSLLTLQRLVQLFPNDTSLKNDLGVGYLLIGDNDNAKKVYEEVLSVTPNDGFAKVHYGFILKAQNKIAESIPYLKEGIESGDPGTDDGRFYFHLGDAMQRVGNKEAYKWYELGHKRGHFASVWQRSLYNVNGLKAQPWWTPKETGYTELVKSLERNWKLIRDEGLAVMDKAKGLFLPEDENLREKGDWSQFTLWQQGRRNENACKGAPKTCTLLEKFPETTGCRRGQIKYSIMHPGTHVWPHTGPTNCRLRMHLGLVIPKEGCKIRCANETKTWEEGKVLIFDDSFEHEVWQDASSFRLIFIVDVWHPELTPQQRRSLPAI
modifications: full-length
As for B3, the “SUM of PSMS” value stood at 11. For the same molecule, where the note is “bait longCTD”, the “3. + Dox longCTD” value came to 1 and the “3. + IFNg + Dox longCTD” value is on record as 9.

B4: P50454 (protein, UniProt P50454 1-418, looked up)
chain: MRSLLLLSAFCLLEAALAAEVKKPAAAAAPGTAEKLSPKAATLAERSAGLAFSLYQAMAKDQAVENILVSPVVVASSLGLVSLGGKATTASQAKAVLSAEQLRDEEVHAGLGELLRSLSNSTARNVTWKLGSRLYGPSSVSFADDFVRSSKQHYNCEHSKINFRDKRSALQSINEWAAQTTDGKLPEVTKDVERTDGALLVNAMFFKPHWDEKFHHKMVDNRGFMVTRSYTVGVMMMHRTGLYNYYDDEKEKLQIVEMPLAHKLSSLIILMPHHVEPLERLEKLLTKEQLKIWMGKMQKKAVAISLPKGVVEVTHDLQKHLAGLGLTEAIDKNKADLSRMSGKKDLYLASVFHATAFELDTDGNPFDQDIYGREELRSPKLFYADHPFIFLVRDTQSGSLLFIGRLVRPKGDKMRDEL
modifications: full-length
For the molecule B4, the “SUM of PSMS” value turned out to be 11. The “3. + IFNg + Dox longCTD” value (bait longCTD) is given as 1.

B5: RNH1 (protein)
chain: SLDIQSLDIQCEELSDARWAELLPLLQQCQVVRLDDCGLTEARCKDISSALRVNPALAELNLRSNELGDVGVHCVLQGLQTPSCKIQKLSLQNCCLTGAGCGVLSSTLRTLPTLQELHLSDNLLGDAGLQLLCEGLLDPQCRLEKLQLEYCSLSAASCEPLASVLRAKPDFKELTVSNNDINEAGVRVLCQGLKDSPCQLEALKLESCGVTSDNCRDLCGIVASKASLRELALGSNKLGDVGMAELCPGLLHPSSRLRTLWIWECGITAKGCGDLCRVLRAKESLKELSLAGNELGDEGARLLCETLLEPGCQLESLWVKSCSFTAACCSHFSSVLAQNRFLLELQISNNRLEDAGVRELCQGLGQPGSVLRVLWLADCDVSDSSCSSLAATLLANHSLRELDLSNNCLGDAGILQLVESVRQPGCLLEQLVLYDIYWSEEMEDRLQALEKDKPSLRVIS
For B5, the “4. mL1dL2 + Dox + IFNG” value (kind of count not given) worked out at 4.

B6: CAPRIN1 (protein)
chain: PSATSHSGSGSKSSGPPPPSGSSGSEAAAGAGAAAPASQHPATGTGAVQTEAMKQILGVIDKKLRNLEKKKGKLDDYQERMNKGERLNQDQLDAVSKYQEVTNNLEFAKELQRSFMALSQDIQKTIKKTARREQLMREEAEQKRLKTVLELQYVLDKLGDDEVRTDLKQGLNGVPILSEEELSLLDEFYKLVDPERDMSLRLNEQYEHASIHLWDLLEGKEKPVCGTTYKVLKEIVERVFQSNYFDSTHNHQNGLCEEEEAASAPAVEDQVPEAEPEPAEEYTEQSEVESTEYVNRQFMAETQFTSGEKEQVDEWTVETVEVVNSLQQQPQAASPSVPEPHSLTPVAQADPLVRRQRVQDLMAQMQGPYNFIQDSMLDFENQTLDPAIVSAQPMNPTQNMDMPQLVCPPVHSESRLAQPNQVPVQPEATQVPLVSSTSEGYTASQPLYQPSHATEQRPQKEPIDQIQATISLNTDQTTASSSLPAASQPQVFQAGTSKPLHSSGINVNAAPFQSMQTVFNMNAPVPPVNEPETLKQQNQYQASYNQSFSSQPHQVEQTELQQEQLQTVVGTYHGSPDQSHQVTGNHQQPPQQNTGFPRSNQPYYNSRGVSRGGSRGARGLMNGYRGPANGFRGGYDGYRPSFSNTPNSGYTQSQFSAPRDYSGYQRDGYQQNFKRGSGQSGPRGAPRGRGGPPRPNRGMPQMNTQQVN
As to B6, the “4. mL1dL2 + Dox + IFNG” value (kind of count not given) is 1.

B7: TRIM28 (protein)
chain: AASAAAASAAAASAASGSPGPGEGSAGGEKRSTAPSAAASASASAAASSPAGGGAEALELLEHCGVCRERLRPEREPRLLPCLHSACSACLGPAAPAAANSSGDGGAAGDGTVVDCPVCKQQCFSKDIVENYFMRDSGSKAATDAQDANQCCTSCEDNAPATSYCVECSEPLCETCVEAHQRVKYTKDHTVRSTGPAKSRDGERTVYCNVHKHEPLVLFCESCDTLTCRDCQLNAHKDHQYQFLEDAVRNQRKLLASLVKRLGDKHATLQKSTKEVRSSIRQVSDVQKRVQVDVKMAILQIMKELNKRGRVLVNDAQKVTEGQQERLERQHWTMTKIQKHQEHILRFASWALESDNNTALLLSKKLIYFQLHRALKMIVDPVEPHGEMKFQWDLNAWTKSAEAFGKIVAERPGTNSTGPAPMAPPRAPGPLSKQGSGSSQPMEVQEGYGFGSGDDPYSSAEPHVSGVKRSRSGEGEVSGLMRKVPRVSLERLDLDLTADSQPPVFKVFPGSTTEDYNLIVIERGAAAAATGQPGTAPAGTPGAPPLAGMAIVKEEETEAAIGAPPTATEGPETKPVLMALAEGPGAEGPRLASPSGSTSSGLEVVAPEGTSAPGGGPGTLDDSATICRVCQKPGDLVMCNQCEFCFHLDCHLPALQDVPGEEWSCSLCHVLPDLKEEDGSLSLDGADSTGVVAKLSPANQRKCERVLLALFCHEPCRPLHQLATDSTFSLDQPGGTLDLTLIRARLQEKLSPPYSSPQEFAQDVGRMFKQFNKLTEDKADVQSIIGLQRFFETRMNEAFGDTKFSAVLVEPPPMSLPGAGLSSQELSGGPGDGP
As to B7, the “4. + IFNG mix” value (LC-MS value per protein co-immunoprecipitated from MB135 myoblasts, + IFNG mix sample (no Dox), kind of count not given) is 1. Also, under “kind of count not given”, the “4. mL1dL2 + Dox + IFNG” value is on record as 8.
